We go through three substances from US20160068609A1.

Where only a bound is given, the exact number is not on record here.

Assay [1] deals with Fc receptors on primary human blood cells: granulocytes (CD66+). As to the kind of experiment: flow cytometry on human blood cells (Example 7).
The target in assay [2] is Fc receptors on primary human blood cells: NK cells (CD16+CD56+). As to the kind of experiment: flow cytometry on human blood cells (Example 7).
The target of assay [3] is Fc receptors on primary human blood cells: granulocytes (CD66+). Kind of assay: flow cytometry on human granulocytes (CD66+).

The substance “Fuc+ cetuximab (high fucose anti-EGFR antibody cetuximab produced in mouse myeloma cell line SP2/0)” had a percent of granulocytes bound in assay [1] of less than 5%. Further, the percent of NK cells bound in assay [2] is less than 5%.
Take “Fuc- cetuximab (low fucosylation variant of cetuximab; reduced fucose anti-EGFR antibody according to the invention)”: the percent of granulocytes bound in assay [3] is 100%.
On the same count and under the same terms, to “control antibody having an Fc glycosylation pattern similar to that of Fuc- cetugex (including a similarly low fucosylation)” belongs 20%.
